From the supplement of paper PMC10567573

B1: KCNA4 (parent)
chain: YQLGEEALLKFREDEGFVREEEDR
B2: CASP6 (parent)
chain: TCADRDNLTRRFSDLGFEVKCFND

Variants of: B1
Assay: protein stability index of a GFP-peptide fusion (GPS, HEK-293T) (PSI 1-6); higher = more stable
Conditions: c terminus: a fixed tail appended
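Also: lentivirally expressed fusions sorted by FACS into six bins by GFP to DsRed ratio, PSI derived from sequencing read proportions per bin multiplied by bin number.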

Protein stability index of substitutions, site by site:
L3: Y 5.23 | V 5.28 | K 5.02 | F 4.7 | I 5.12 | S 4.86 | P 5.28 | G 4.53 | H 5.22 | R 4.75 | E 5.67 | W 3.89 | Q 5.62 | T 5.31
F11: W 4.21 | C 4.63 | N 5.75 | E 5.67 | A 4.72 | G 5.61 | Y 5.46 | M 4.44
L8: Y 5.21 | P 5.13 | K 5.04 | F 4.43 | W 3.55 | R 5.13 | G 5.48 | Q 5.65 | A 4.93 | M 4.56 | D 5.6 | E 5.5 | H 5.62 | I 5.21 | V 5.58 | C 4.98
F17: I 4.3 | D 4.81 | M 3.69 | Y 4.86 | L 4.61 | R 4.13 | S 4.56 | W 4.59 | Q 4.5 | T 4.5 | P 4.9
L9: H 4.96 | C 4.92 | I 5 | Q 4.9 | D 5.87 | W 4.01 | P 5.09 | R 4.41 | T 5.15 | G 5.03 | A 4.88 | E 5.37 | S 5.05
E21: M 4.21 | W 3.5 | K 4.08 | T 4.38 | Q 4.21 | C 3.71 | P 4.65 | L 3.07 | R 3.05 | Y 4 | V 4.29 | F 4.06 | S 4.71
D14: L 4.08 | P 3.16 | G 3.45 | N 3.98 | K 3.45 | C 4 | S 3.56 | T 3.98 | I 4 | E 4.18 | H 3.64 | F 3.78 | R 3.58
V18: F 4.36 | R 4.04 | A 4.16 | C 4.53 | H 4.36 | N 4.82 | M 4.58 | Y 4.63 | S 4.32
G4: H 4.8 | K 5.34 | P 5.03 | L 4.41 | E 5.77 | M 5.27 | Y 4.57 | C 4.51 | W 4.4 | V 5.11
E13: L 4.45 | P 4.22 | T 4.43 | Y 4.02 | K 4 | N 4.5 | W 2.39 | V 3.81 | Q 4.3 | S 3.37 | M 3.84 | I 3.32
K10: T 4.57 | P 5.59 | I 3.35 | G 5.52 | S 4.43 | L 3.1 | W 2.25 | N 5.07 | Y 3.94 | C 3.37 | F 1.64 | D 5.55
R24: Q 4.71 | D 4.71 | V 4.73 | P 5.16 | I 4.6 | W 4.53 | H 4.83 | L 4.54 | K 4.66 | G 4.79 | C 4.21 | Y 4.42
E6: W 1.97 | K 4 | G 4.32 | F 2.4 | Y 3.04 | L 3.32 | R 3.46 | I 2.93 | D 4.67 | S 4.67 | A 4.31 | M 3.99
E22: H 4.37 | G 4.23 | C 4.32 | I 4.03 | P 4.16 | T 4.11 | Y 3.58 | A 4.75 | S 4.02
G16: Y 4.04 | R 4.08 | S 4.75 | I 4.61 | L 4.85 | E 4.84 | W 4.12 | D 5.21 | M 4.48 | Q 4.73 | K 3.93 | N 4.47 | F 4.31 | C 4.83 | P 4.62 | T 4.58
E15: D 4.15 | W 3.84 | A 3.83 | V 3.8 | T 3.73 | Y 4.3 | R 4.15 | M 3.96 | N 4.42 | F 3.83 | Q 4.4 | K 4.16 | P 3.99 | I 3.83 | H 3.87
D23: V 3.7 | F 4.14 | L 3.97 | Q 4.04 | Y 4.46 | K 4.45 | C 4.48 | G 3.88 | R 4.39 | S 4.62 | E 4.75 | A 4.28 | I 3.88
R19: K 4.05 | M 4.62 | D 4.76 | C 4.91 | T 4.65 | E 4.91 | V 4.59 | Y 4.51 | F 4.87 | N 4.47 | S 4.22 | I 4.36 | P 4.62
Y1: P 5.63 | L 4.96 | V 5.58 | T 5.57 | M 5.47 | K 5.6 | W 5.25 | E 5.74 | R 5.81 | N 5.67 | S 5.53 | I 5.3 | H 5.47
E20: M 4.06 | L 3.9 | S 4.45 | W 3.56 | T 4.56 | F 3.64 | A 3.63 | K 4.13 | G 3.93 | C 4.05 | I 3.4 | Y 3.71
R12: G 5.08 | N 5.17 | A 4.41 | T 3.98 | I 4.15 | W 2.34 | D 5.54 | L 4.4 | C 3.02 | M 4.06 | F 4.62 | S 4.66
Q2: T 5.31 | W 4.19 | D 5.62 | F 4.15 | S 5.61 | L 4.24 | G 5.23 | H 2.94 | E 5.37 | A 5.36 | P 5.15 | V 4.21
A7: F 4.43 | H 4.56 | D 4.23 | I 3.99 | W 1.48 | K 5.36 | V 4.33 | T 4.95 | Y 4.27 | P 4.59 | E 4.38 | N 4.82
E5: D 4.97 | L 3.83 | K 3.3 | T 4.2 | F 2.93 | H 3.76 | S 4.38 | M 3.37 | P 4.11 | I 3.55 | V 3.86 | Q 3.92 | N 4.22 | A 3.65

Variants of: B2
Assay: as above
Conditions: c terminus: a fixed tail appended

Protein stability index of substitutions, site by site:
T1: P 3.67 | H 3.37 | M 3.58 | D 4.37 | F 2.18 | I 2.73 | N 3.03 | L 3.1 | W 2.32 | Q 4.05 | C 2.88 | A 3.73 | E 3.74 | Y 2.15 | G 3.2 | K 3.07 | R 3.06 | S 3.28 | V 2.92
C2: F 3.16 | D 3.81 | S 3.88 | P 4.04 | L 3.25 | A 4.04 | M 3.38 | E 4.84 | V 3.93 | T 3.54 | I 3.35 | G 3.47 | N 4.32 | R 3.74 | K 3.51 | Y 3.23 | Q 3.43 | H 3.71 | W 2.36
